Measured values from PMC3499988 (Biochemistry, 2011).
Residue numbers refer to the chain shown, from its start. Numbers in names are those of the source.

B1: Fab m18 (wild type) (Fab, V domains shown)
VH: VQLLESGPGVVKPSETLSLTCTVSGASVNNYYWTWVRQPPGKGLEWIGNVYDSGDTNYNPSLSSRLSLSMDTSKNQFSLRLSSVTAADTATYYCARYHRHFIRGPLSFDYWGRGTLVTVSS
VL: LQMTQSPSFLSASVGDRVSITCRASQDIQKFLAWYQLTPGDAPKLLMYSASTLQSGVPSRFSGSGSGTEFTLTISGLQPEDFATYYCQHLKRYPYTFGQGTKLEIS
B2: Fab m18 Y102A (HCDR3) (Fab, V domains shown)
VH: B1 VH with Y110A
VL: B1 VL
B3: Fab m18 N31A (HCDR1) (Fab, V domains shown)
VH: B1 VH with N30A
VL: B1 VL
B4: Fab m18 P95A (LCDR3) (Fab, V domains shown)
VH: B1 VH
VL: B1 VL with P94A
B5: Fab m18 T57A (HCDR2) (Fab, V domains shown)
VH: B1 VH with T56A
VL: B1 VL
B6: Fab m18 N30A (HCDR1) (Fab, V domains shown)
VH: B1 VH with N29A
VL: B1 VL
B7: Fab m18 R100aE (HCDR3) (Fab, V domains shown)
VH: B1 VH with R103E
VL: B1 VL
B8: Fab m18 Y32A (HCDR1) (Fab, V domains shown)
VH: B1 VH with Y31A
VL: B1 VL
B9: Fab m18 S54A (HCDR2) (Fab, V domains shown)
VH: B1 VH with S53A
VL: B1 VL
B10: Fab m18 D53A (HCDR2) (Fab, V domains shown)
VH: B1 VH with D52A
VL: B1 VL
B11: Fab m18 K31R (LCDR1) (Fab, V domains shown)
VH: B1 VH
VL: B1 VL with K30R
B12: Fab m18 D56A (HCDR2) (Fab, V domains shown)
VH: B1 VH with D55A
VL: B1 VL
B13: Fab m18 Q30A (LCDR1) (Fab, V domains shown)
VH: B1 VH
VL: B1 VL with Q29A
B14: Fab m18 Y33F (HCDR1) (Fab, V domains shown)
VH: B1 VH with Y32F
VL: B1 VL
B15: Fab m18 R93A (LCDR3) (Fab, V domains shown)
VH: B1 VH
VL: B1 VL with R92A
B16: Fab m18 T53A (LCDR2) (Fab, V domains shown)
VH: B1 VH
VL: B1 VL with T52A
B17: Fab m18 H96A (HCDR3) (Fab, V domains shown)
VH: B1 VH with H98A
VL: B1 VL
B18: Fab m18 S64A (HCDR2) (Fab, V domains shown)
VH: B1 VH with S63A
VL: B1 VL
B19: Fab m18 R24A (LCDR1) (Fab, V domains shown)
VH: B1 VH
VL: B1 VL with R23A
B20: Fab m18 P61A (HCDR2) (Fab, V domains shown)
VH: B1 VH with P60A
VL: B1 VL
B21: Fab m18 Y33A (HCDR1) (Fab, V domains shown)
VH: B1 VH with Y32A
VL: B1 VL
B22: Fab m18 R100aA (HCDR3) (Fab, V domains shown)
VH: B1 VH with R103A
VL: B1 VL
B23: Fab m18 S65A (HCDR2) (Fab, V domains shown)
VH: B1 VH with S64A
VL: B1 VL
B24: Fab m18 S56A (LCDR2) (Fab, V domains shown)
VH: B1 VH
VL: B1 VL with S55A
B25: Fab m18 S62A (HCDR2) (Fab, V domains shown)
VH: B1 VH with S61A
VL: B1 VL
B26: Fab m18 D28A (LCDR1) (Fab, V domains shown)
VH: B1 VH
VL: B1 VL with D27A
B27: Fab m18 Q27A (LCDR1) (Fab, V domains shown)
VH: B1 VH
VL: B1 VL with Q26A

biological target: T1, HIV-1 HXBc2 gp120 (HIV-1 (HXBc2), UniProt P04578); assay: SPR

Row | Binder | IC50
1 | B1 | 36.1 ± 12.9 nM

biological target: T2, HIV-1 YU-2 gp120 (HIV-1 (YU-2), UniProt P35961); assay: SPR

Row | Binder | IC50
2 | B1 | 33 ± 3.6 nM
3 | B2 | > 1000 nM
4 | B3 | > 1000 nM
5 | B4 | > 1000 nM
6 | B5 | 16.8 ± 3.8 nM
7 | B6 | > 1000 nM
8 | B7 | > 1000 nM
9 | B8 | 247 ± 15.8 nM
10 | B9 | > 1000 nM
11 | B10 | > 500 nM
12 | B11 | > 1000 nM
13 | B12 | > 1000 nM
14 | B13 | 80.3 ± 16.7 nM
15 | B14 | > 1000 nM
16 | B15 | 49.5 ± 20.5 nM
17 | B16 | > 500 nM
18 | B17 | > 500 nM
19 | B18 | > 1000 nM
20 | B19 | > 1000 nM
21 | B20 | > 1000 nM
22 | B21 | 135 ± 7.1 nM
23 | B22 | > 500 nM
24 | B23 | > 1000 nM
25 | B24 | > 500 nM
26 | B25 | > 1000 nM
27 | B26 | 65.5 ± 0.5 nM
28 | B27 | 49.6 ± 3.1 nM

biological target: T1, HIV-1 HXBc2 gp120; assay: SPR; remark: another data set of the same source

Row | Binder | Kd | koff | kon
29 | B1 | 4.3 nM | 0.00022 ± 0.9 s⁻¹ | 52000 ± 2.2 M⁻¹ s⁻¹

biological target: T2, HIV-1 YU-2 gp120; assay: SPR; remark: another data set of the same source

Row | Binder | IC50
30 | B1 | 36 ± 1.2 nM
31 | B2 | > 1000 nM
32 | B3 | > 1000 nM
33 | B4 | > 1000 nM
34 | B5 | 33.1 ± 8 nM
35 | B6 | > 1000 nM
36 | B7 | > 1000 nM
37 | B8 | 432 ± 31.5 nM
38 | B9 | > 1000 nM
39 | B10 | > 500 nM
40 | B11 | > 1000 nM
41 | B12 | > 1000 nM
42 | B13 | 129 ± 5 nM
43 | B14 | > 1000 nM
44 | B15 | 78.7 ± 3.2 nM
45 | B16 | > 500 nM
46 | B17 | > 500 nM
47 | B18 | > 1000 nM
48 | B19 | > 1000 nM
49 | B20 | > 1000 nM
50 | B21 | 150 ± 3.5 nM
51 | B22 | > 500 nM
52 | B23 | > 1000 nM
53 | B24 | > 500 nM
54 | B25 | > 1000 nM
55 | B26 | 70.8 ± 1.8 nM
56 | B27 | 54.5 ± 3.5 nM

biological target: T1, HIV-1 HXBc2 gp120; assay: SPR; remark: another data set of the same source

Row | Binder | IC50
57 | B1 | 56.9 ± 13 nM

biological target: T2, HIV-1 YU-2 gp120; assay: SPR; remark: another data set of the same source

Row | Binder | Kd | koff | kon
58 | B1 | 1.4 nM | 9.8e-05 s⁻¹ | 69000 ± 0.3 M⁻¹ s⁻¹
59 | B2 | 31.5 nM | 0.0012 ± 0.4 s⁻¹ | 37000 ± 1.4 M⁻¹ s⁻¹
60 | B3 | 25.9 nM | 0.0013 ± 0.5 s⁻¹ | 51000 ± 1 M⁻¹ s⁻¹
61 | B4 | 35.5 nM | 0.0019 ± 0.3 s⁻¹ | 53000 ± 1.6 M⁻¹ s⁻¹
62 | B5 | 2.5 nM | 0.00021 ± 0.4 s⁻¹ | 84000 ± 2 M⁻¹ s⁻¹
63 | B6 | 40.9 nM | 0.0017 ± 0.3 s⁻¹ | 40000 ± 0.4 M⁻¹ s⁻¹
64 | B7 | 69.2 nM | 0.0011 ± 0.7 s⁻¹ | 16000 ± 0.6 M⁻¹ s⁻¹
65 | B8 | 0.4 nM | 6.1e-05 s⁻¹ | 120000 ± 0.2 M⁻¹ s⁻¹
66 | B9 | 56.4 nM | 0.0022 ± 0.7 s⁻¹ | 39000 ± 0.5 M⁻¹ s⁻¹
67 | B10 | 7 nM | 0.00012 ± 1.1 s⁻¹ | 16000 ± 1.3 M⁻¹ s⁻¹
68 | B11 | 34.7 nM | 0.0011 ± 0.2 s⁻¹ | 31000 ± 1.2 M⁻¹ s⁻¹
69 | B12 | 26.2 nM | 0.00061 ± 4.5 s⁻¹ | 25000 ± 0.6 M⁻¹ s⁻¹
70 | B13 | 1.4 nM | 0.00012 ± 0.1 s⁻¹ | 91000 ± 0.1 M⁻¹ s⁻¹
71 | B14 | 56.3 nM | 0.0024 ± 0.8 s⁻¹ | 42000 ± 1.9 M⁻¹ s⁻¹
72 | B15 | 2 nM | 8e-05 s⁻¹ | 39000 ± 0.2 M⁻¹ s⁻¹
73 | B16 | 35.2 nM | 0.00071 ± 7 s⁻¹ | 20000 ± 2.1 M⁻¹ s⁻¹
74 | B17 | 11.7 nM | 0.0011 ± 0.6 s⁻¹ | 93000 ± 2.9 M⁻¹ s⁻¹
75 | B18 | 40 nM | 0.00086 ± 5.9 s⁻¹ | 21000 ± 0.7 M⁻¹ s⁻¹
76 | B19 | 16.8 nM | 0.00039 ± 3.7 s⁻¹ | 23000 ± 0.9 M⁻¹ s⁻¹
77 | B20 | 19.3 nM | 0.00063 ± 1 s⁻¹ | 33000 ± 1 M⁻¹ s⁻¹
78 | B21 | 30.7 nM | 0.0038 ± 0.2 s⁻¹ | 120000 ± 0.5 M⁻¹ s⁻¹
79 | B22 | 2.3 nM | 7.6e-05 s⁻¹ | 34000 ± 0.9 M⁻¹ s⁻¹
80 | B23 | 39.1 nM | 0.0014 ± 0.2 s⁻¹ | 36000 ± 1.2 M⁻¹ s⁻¹
81 | B24 | 25.7 nM | 0.00066 ± 1.4 s⁻¹ | 28000 ± 0.7 M⁻¹ s⁻¹
82 | B25 | 44.2 nM | 0.0016 ± 0.4 s⁻¹ | 35000 ± 0.9 M⁻¹ s⁻¹
83 | B26 | 0.7 nM | 1.9e-05 s⁻¹ | 28000 ± 3.1 M⁻¹ s⁻¹
84 | B27 | 6.7 nM | 0.00049 ± 3.9 s⁻¹ | 72000 ± 2.9 M⁻¹ s⁻¹
